Consider three molecules from PMC4251946, “The mechanism of H171T resistance reveals the importance of Nδ-protonated His171 for the binding of allosteric inhibitor BI-D to HIV-1 integrase” (Retrovirology, 2014).

The target in assay [1] is H171T HIV-1 integrase (IN) (HIV-1). The assay is described as follows: SEC; Superdex 200 10/300 GL; 20 mM HEPES pH 6.8, 750 mM NaCl, 10 mM MgSO4, 0.2 mM EDTA, 5 mM BME, 5% glycerol, 200 μM ZnCl2; 4°C; tetramer and monomer peaks. For orientation: SEC sorts molecules by how far they enter the pores of the column.
Assay [2] shares this target. Put plainly: AlphaScreen or HTRF. Background: In Alpha technology, singlet oxygen from a donor bead excites a nearby acceptor bead.
The target of assay [3] is T1, LEDGF/p75 (UniProt O75475 1-530).
T1 construct: source: E. coli, purified as described previously [37]; not shown: FLAG, C-terminal, kept
Put plainly: AlphaScreen or HTRF. To be noted: both partners purified.

For the molecule H171T HIV-1 integrase (IN) (enzyme), the stoichiometry N in assay [1] is 4. “LEDGF/p75 (from UniProt O75475 1-530) (natural protein)” registered a Kd in assay [2] of 10.5 nM.

B1: WT HIV-1 integrase (IN) (enzyme)
chain: FLDGIDKAQEEHEKYHSNWRAMASDFNLPPVVAKEIVASCDKCQLKGEAMHGQVDCSPGIWQLDCTHLEGKVILVAVHVASGYIEAEVIPAETGQETAYFLLKLAGRWPVKTVHTDNGSNFTSTTVKAACWWAGIKQEFGIPYNPQSQGVIESMNKELKKIIGQVRDQAEHLKTAVQMAVFIHNFKRKGGIGGYSAGERIVDIIATDIQTKELQKQITKIQNFRVYYRDSRDPVWKGPAKLLWKGEGAVVIQDNSDIKVVPRRKAKIIRDYGKQMAGDDCVASRQDED
notes: also called WT IN; source: E. coli, purified as described previously [37]; not shown: 6xHis, N-terminal, kept
B1 returned a Kd in assay [3] of 3.3 ± 0.3 nM.

For orientation: stoichiometry N means the number of molecules, sites or subunits per partner or assembly. For orientation: Kd means a measure of binding affinity in units of concentration. Higher therefore signals a looser complex.
